Experimental data taken from patent publication US10308692B2, “Variants of GAL2 transporter and their uses” (Johann Wolfgang Goethe-Universität Frankfurt, priority 2014, dated 2019).
Numbering of substitutions follows the chain as printed. Numbers in names are those of the source.

B1: N376Y + M435I: Gal2 variant with amino acid substitutions N376Y and M435I (protein, UniProt P13181 1-574, looked up, variant N376Y M435I)
Galactose transporter: MAVEENNMPVVSQQPQAGEDVISSLSKDSHLSAQSQKYSNDELKAGESGSEGSQSVPIEIPKKPMSEYVTVSLLCLCVAFGGFMFGWDTGTISGFVVQTDFLRRFGMKHKDGTHYLSNVRTGLIVAIFNIGCAFGGIILSKGGDMYGRKKGLSIVVSVYIVGIIIQIASINKWYQYFIGRIISGLGVGGIAVLCPMLISEIAPKHLRGTLVSCYQLMITAGIFLGYCTNYGTKSYSNSVQWRVPLGLCFAWSLFMIGALTLVPESPRYLCEVNKVEDAKRSIAKSNKVSPEDPAVQAELDLIMAGIEAEKLAGNASWGELFSTKTKVFQRLLMGVFVQMFQQLTGNNYFFYYGTVIFKSVGLDDSFETSIVIGVVYFASTFFSLWTVENLGHRKCLLLGAATMMACMVIYASVGVTRLYPHGKSQPSSKGAGNCIIVFTCFYIFCYATTWAPVAWVITAESFPLRVKSKCMALASASNWVWGFLIAFFTPFITSAINFYYGYVFMGCLVAMFFYVFFFVPETKGLSLEEIQELWEEGVLPWKSEGWIPSSRRGNNYDLEDLQHDDKPWYKAMLE
B2: Gal2 WT: wild-type protein Gal2 of S. cerevisiae CEN.PK2-1C, SEQ ID NO: 1, 574 amino acids, galactose transporter (protein, UniProt P13181 1-574, looked up)
Galactose transporter: B1 Galactose transporter with Y376N, I435M
B3: N376F + M435I: Gal2 variant with amino acid substitutions N376F and M435I (protein, UniProt P13181 1-574, looked up, variant N376F M435I)
Galactose transporter: B1 Galactose transporter with Y376F
B4: N376F: Gal2 variant with amino acid substitution N376F (protein, UniProt P13181 1-574, looked up, variant N376F)
Galactose transporter: B1 Galactose transporter with Y376F, I435M
B5: N376Y: Gal2 variant with amino acid substitution N376Y (protein, UniProt P13181 1-574, looked up, variant N376Y)
Galactose transporter: B1 Galactose transporter with I435M

Experiments:
Type in all cases: cell-based, Saccharomyces cerevisiae
EBY.VW4000 = assay: Xylose uptake assay with radioactively labelled xylose; settings: for xylose uptake rate compared to wild type: FIGS. 7 and 8; for Vmax: xylose uptake, Michaelis-Menten fit (GraphPad Prism), three replicates, figures give velocity in nmol xylose per minute per milligram cell dry mass
From the text: FIG. 7: Xylose uptake assay of Gal2_N376Y, N376Y+M435I and Gal2 wild type in EBY.VW4000 (three independent replicates). The uptake velocity is shown in nmol xylose per minute per milligram cell dry mass.
FIG. 8: Xylose uptake assay of Gal2_N376F, N376F+M435I and Gal2 wild type in EBY.VW4000 (three independent replicates). The uptake velocity is shown in nmol xylose per minute per milligram cell dray mass.
Sugar uptake assays were done as described by Bisson et al. (Bisson and Fraenkel, 1983) with modifications according to Walsh et al. (Walsh et al., 1994).
Transformants of strain EBY.VW4000 were grown in selective YEPE to an OD of 1.1-1.6, harvested by centrifugation and washed twice in ice-cold uptake-buffer (RT, 3 min, 3000×g). Cells were kept on ice from here on. The cell pellet was resuspended in ice-cold uptake-buffer to a concentration of 60 mgww/ml and aliquoted to 110 μl. One cell suspension aliquot and one sugar solution were incubated in a water bath at 30° C. for 4-5 min. 100 μl of the cell suspension were pipetted to the sugar solution (50 μl), mixed briefly by pipetting and incubated for 5 (D-[U-^14C]-glucose) or 20 sec (D-[1-^14C]-xylose). The uptake reaction was stopped by transferring 100 μl of the mixture into 10 ml ice-cold quenching-buffer, which was immediately filtered through a Durapore membrane filter (0.22 μm pore size, Millipore). The filter was washed twice with 10 ml ice-cold quenching-buffer, transferred to a scintillation vial containing 4 ml scintillation cocktail (Rotiszint eco plus, Roth) and shaken thoroughly. Additionally to this filter sample (cpmfilter), 10 μl of each reaction were transferred directly to a scintillation vial with 4 ml scintillation cocktail for determination of the total counts in the reaction (cpmtotal). To determine a value for sugar that is bound unspecifically to the cell surface or the filter (cpmblank) a few samples of 33,3 μl sugar solution and 66,6 μl cell suspension were mixed in 10 ml icecold quenching buffer and treated as described above. Radioactivity of all vials was analysed in an Wallac 1409 liquid scintillation counter.
Stocksolutions of 2M, 500 mM or 20 mM glucose or xylose (in H2O) were used to prepare the sugar solutions for the assays (threefold of the desired concentration in the uptake reaction (S, substrate concentration), 50 μl aliquots). Uptake was measured at sugar concentrations 0.2, 1, 5, 25 and 100 mM for glucose and 1, 5, 25, 66, 100, 200 and 500 mM for xylose. Inhibition of xylose uptake by glucose was measured at 25, 66 and 100 mM xylose with additional 25 and 100 mM unlabelled glucose. Sugar solutions contained 0.135 to 0.608 μCi of D-[U-^14C]-glucose (290-300 mCi/mmol) or D-[1-^14C]-xylose (55 mCi/mmol) (American Radiolabeled Chemicals Inc., St. Louis, Mo., USA).
The amount of sugar (Asugar in nmol) taken up during the incubation time (t, in seconds) at a certain sugar concentration (S, in mM): Asugar=((cpmsample−cpmblank)/(cpmtotal·10))·S·100 μl
Transport velocity (in nmol·min^−1·mgww^−1) calculated per milligrams of cell (m, in mgww): V=(Asugar·60 s)/(t·m)
Calculation of Km (Michaelis constant), Vmax (maximal initial uptake velocity) and Ki (inhibitor constant for competitive inhibition) was done by nonlinear regression analysis and global curve fitting in Prism 5 (GraphPad Software, Inc.) with values of three independent measurements.
Xylose uptake of Gal2_N376F, N376F+M435I, N376Y und N376Y+M435I was characterized with a sugar uptake assay. The relevant plasmids were transformed in strain EBY.VW4000. Cells were cultivated in SCM-ura until they reached the exponential growth phase (OD600˜0.6). Then cells were harvested, concentrated to the same OD600 (OD600 35-40), separated into different aliquots and stored on ice.
Three uptake assays (in tripicates) were performed with different concentrations of radioactively labelled xylose. Data were collected and fittet with GraphPad Prism according to Michaelis Menten (FIGS. 7 and 8).

AFY10 [1] = assay: Growth test in liquid media and fermentation; settings: for xylose concentration of the supernatant decreased during the fermentation to: HPLC
Procedure: The strain AFY10, which was transformed with YEp181_pHXT7-opt.XI_Clos and p426H7-GAL2_wt (WT) or p426H7-GAL2_ep3.1 (ep3.1) or p426-GAL2_N376Y+M435I (M435I), was incubated in 150 ml SCE-ura-leu+G418. This was the preculture which was used to start the fermentation with an OD600 of 0.6 in 30 ml SC-ura-leu with 0.6% xylose (A) or with 0.6% xylose with 2% glucose (B). The cultures were incubated at 180 rpm and 30° for seven days. Samples were taken for growth measurements as well as metabolite analysis.
For analysis of metabolites cell-free samples (5-10 min, 4° C., 16000×g) were mixed with 1/9 volumes of 50% (w/v) 5-sulfosalicylic acid and centrifuged (5-10 min, 4° C., 16000×g). The supernatant was analyzed in an UHPLC+ system by Thermo Scientific (Dionex UltiMate 3000) equipped with a HyperREZ XP Carbohydrate H^+8 μm column and a refractive index detector (Thermo Shodex RI-101). Separation was carried out at column temperature of 65° C. with 5 mM sulfuric acid as mobiles phase with a flow rate of 0.6 ml/min. Chromeleon 6.80 software was used to control the system and to analyze the data. Five standards (mixtures of D-glucose, D-xylose, xylitol, acetate, glycerol and ethanol with concentrations of 0.01-3% (w/v)) were analyzed for quantification of the different compounds.
To investigate the growth difference and the xylose consumption of the mutants in comparison to the wild type and the error prone mutant, an anaerobic growth test in liquid media was carried out. For this purpose AFY10 cells were co-transformed with the vector with the respective GAL2 sequence and YEp181_pHXT7-opt.XI_Clos and inoculated in SCE-ura-leu+G418 to have an OD600 of 0.6 in 30 ml SC-ura-leu with 0.6% xylose or with 0.6% xylose with 2% glucose. The OD600 was measured regularly during five days, the growth rate μ was determined and the metabolites of the samples were examined, whereby the samples were diluted 1:5 for this reason.

AFY10 [2] = assay: Serial dilution drop test on xylose and xylose-glucose media; settings: for growth on low xylose: 0.2% (2 g/l) xylose
Procedure: The transformants were cultivated in 5 ml SCE-ura-leu with 2% ethanol at 30°, washed with water and adjusted to an OD600 of 1. Thereof it followed a serial dilution. 5 μl were dropped onto the respective media and it was incubated for five days at 30°. As a control for the dilution SCE-ura-leu with 2% ethanol was taken. The cells of the mutated transporters were dropped onto SCX-ura-leu with 0.2% and 2% D-xylose, as well as SC-ura-leu with 1% D-xylose with 4% D-glucose and SC-ura-leu with 0.2% D-xylose and 2% D-glucose to test their functionality. Furthermore the wild type and Gal2_ep3.1 were used for comparison.
FIG. 5: Drop test of Gal2_M435I in AFY10 after five days at 30°. Several dilutions were dropped from left to right (undiluted, 1:10, 1:100, 1:1000).
FIG. 6: Drop test of Gal2_N376F, N376F+M435I and N376Y+M435I in AFY10 after five days at 30°. Several dilutions were dropped from left to right (undiluted, 1:10, 1:100, 1:1000). But on 20 g/l xylose the order was different (undiluted, 1:100, 1:1000, 1:10).
For easy comparison of growth of different S. cerevisiae strains under various growth conditions a serial dilution spot assay was performed. Cells were grown in liquid culture to exponential phase in appropriate medium, collected by centrifugation (2000×g, 2 min), washed twice with sterile water and then resuspended to an OD600 of 1.0 in selective medium without carbon source. From this cell suspension a ten-fold serial dilution was prepared in selective medium (four dilution steps). 6 μl of each cell suspension were spotted on plates of the media to be examined and allowed to dry. Plates were incubated at 30° C.
To characterize the different constructs which all were verified by sequencing they were transformed together with vector YEp181_pHXT7-optXI_Clos into competent AFY10 cells and drop tests were performed.

[3] = start 0.6% xylose with 2% glucose

| Molecule | xylose uptake rate compared to wild type (EBY.VW4000) | Vmax (EBY.VW4000) | growth rate (AFY10 [1]; 0.6% xylose) [h⁻¹] | growth rate (AFY10 [1]; 0.6% xylose with 2% glucose) [h⁻¹] | xylose concentration of the supernatant decreased during the fermentation to (AFY10 [1]; [3]) [%] | xylose concentration of the supernatant decreased during the fermentation to (AFY10 [1]; start 0.6% xylose) [%] | growth on low xylose (AFY10 [2]) | growth on low xylose with glucose (AFY10 [2]; 0.2% xylose with 2% glucose) | growth on xylose with glucose (AFY10 [2]; 1% xylose with 4% glucose (10 g/l xylose plus 40 g/l glucose)) | growth on high xylose (AFY10 [2]; 2% (20 g/l) xylose, compared within the same drop test) | OD600 tend (AFY10 [1]; [Xyl+Glu]: 0.6% xylose with 2% glucose) | OD600 tend (AFY10 [1]; [Xyl]: 0.6% xylose without glucose) |
| --- | --- | --- | --- | --- | --- | --- | --- | --- | --- | --- | --- | --- |
| B1 | strongly improved | 99.61 | 0.014 | 0.015 | 0.37 | 0.35 | better growth | better growth | best growth | best growth | – | – |
| B2 | – | 63.43 | – | – | 0.53 | – | best growth | – | – | – | 0,52 | 0,86 |
| B3 | reduced uptake rate | 13.81 | – | – | – | – | grow the best | – | – | – | – | – |
| B4 | – | 25.86 | – | – | – | – | better than that of Gal2_N376Y+M435I | – | – | – | – | – |
| B5 | strong reduction | 11.92 | – | – | – | – | – | – | – | – | – | – |
